According to the supplement of paper PMC6757056:
± gives the standard deviation of the averaged measurements.

B1: library; a variant is named by its letters at N, in order (parent)
chain: GCUGUCACCGGUGUAUUACCCUAGUGGUCGACCGGUCUGAUGAGUCUNNNNNNAGACGAAACAGC

What was measured:
hypoxanthine [1] = variants of: B1; assay: normalized RNA/DNA level with ligand (relative to sTRSVctl = 100) (log10 (% of sTRSVctl)); ligand: hypoxanthine (xanthine aptamer); higher = less ribozyme self-cleavage, higher mRNA level; settings: ligand concentration (+) RNA-Seq: 5 mM, HEK293T, reporter: mCherry (pCS4076), ligand present: yes
Procedure, shortened: (§1)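 Ribozyme switch library plasmids linked to reporters were introduced into HEK293T cells at 4 µg per 6-well well, with ligand, if any, added 1 h before. Total RNA was extracted with EDTA 72 h later, reverse-transcribed, amplified, barcoded and sequenced. RNA level was computed from RNA over DNA reads relative to a spiked-in non-cleaving sequence or the top sequences, then scaled and log-transformed. The top set was 25 sequences, values were ×100 and log10, and the cutoff was ≥100 DNA reads.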

hypoxanthine [2] = variants of: B1; assay: normalized RNA/DNA level without ligand (relative to sTRSVctl = 100) (log10 (% of sTRSVctl)); ligand: hypoxanthine (xanthine aptamer); higher = less ribozyme self-cleavage, higher mRNA level; settings: HEK293T, reporter: mCherry (pCS4076), ligand present: no
Procedure, shortened: as §1

Row | Variant | normalized RNA/DNA level with ligand (log10) (hypoxanthine [1]) | normalized RNA/DNA level without ligand (log10) (hypoxanthine [2])
1 | GCUGUCACCGGUGUAUUACCCUAGUGGUCGACCGGUCUGAUGAGUCUUAGAUUAGACGAAACAGC [UAGAUU] | 1.93 ± 0.027 | 1.866 ± 0.017
2 | GCUGUCACCGGUGUAUUACCCUAGUGGUCGACCGGUCUGAUGAGUCUUAGAUCAGACGAAACAGC [UAGAUC] | 1.964 ± 0.012 | 1.955 ± 0.018
3 | GCUGUCACCGGUGUAUUACCCUAGUGGUCGACCGGUCUGAUGAGUCUGAGCAUAGACGAAACAGC [GAGCAU] | 1.944 ± 0.018 | 1.72 ± 0.022
4 | GCUGUCACCGGUGUAUUACCCUAGUGGUCGACCGGUCUGAUGAGUCUAAGCCCAGACGAAACAGC [AAGCCC] | 1.97 ± 0.032 | 1.9 ± 0.041
5 | GCUGUCACCGGUGUAUUACCCUAGUGGUCGACCGGUCUGAUGAGUCUCACUUGAGACGAAACAGC [CACUUG] | 1.95 ± 0.1 | 1.88 ± 0.043
6 | GCUGUCACCGGUGUAUUACCCUAGUGGUCGACCGGUCUGAUGAGUCUGACUUUAGACGAAACAGC [GACUUU] | 1.923 ± 0.017 | 1.91 ± 0.056
7 | GCUGUCACCGGUGUAUUACCCUAGUGGUCGACCGGUCUGAUGAGUCUUAGCACAGACGAAACAGC [UAGCAC] | 1.927 ± 0.0061 | 1.8 ± 0.018
8 | GCUGUCACCGGUGUAUUACCCUAGUGGUCGACCGGUCUGAUGAGUCUUAGCAUAGACGAAACAGC [UAGCAU] | 1.91 ± 0.026 | 1.772 ± 0.0045
9 | GCUGUCACCGGUGUAUUACCCUAGUGGUCGACCGGUCUGAUGAGUCUAAGACUAGACGAAACAGC [AAGACU] | 1.95 ± 0.064 | 1.856 ± 0.0071
10 | GCUGUCACCGGUGUAUUACCCUAGUGGUCGACCGGUCUGAUGAGUCUUAGACUAGACGAAACAGC [UAGACU] | 1.925 ± 0.0021 | 1.83 ± 0.02
11 | GCUGUCACCGGUGUAUUACCCUAGUGGUCGACCGGUCUGAUGAGUCUUAGACCAGACGAAACAGC [UAGACC] | 1.976 ± 0.016 | 1.92 ± 0.0073
12 | GCUGUCACCGGUGUAUUACCCUAGUGGUCGACCGGUCUGAUGAGUCUUAGACAAGACGAAACAGC [UAGACA] | 1.9 ± 0.038 | 1.857 ± 0.0097
13 | GCUGUCACCGGUGUAUUACCCUAGUGGUCGACCGGUCUGAUGAGUCUUAGACGAGACGAAACAGC [UAGACG] | 1.8696 ± 0.00011 | 1.642 ± 0.013
14 | GCUGUCACCGGUGUAUUACCCUAGUGGUCGACCGGUCUGAUGAGUCUCAGAUAAGACGAAACAGC [CAGAUA] | 1.88 ± 0.052 | 1.57 ± 0.043
15 | GCUGUCACCGGUGUAUUACCCUAGUGGUCGACCGGUCUGAUGAGUCUCAGAUUAGACGAAACAGC [CAGAUU] | 1.96 ± 0.024 | 1.768 ± 0.015
16 | GCUGUCACCGGUGUAUUACCCUAGUGGUCGACCGGUCUGAUGAGUCUCAGAUGAGACGAAACAGC [CAGAUG] | 1.94 ± 0.03 | 1.808 ± 0.011
17 | GCUGUCACCGGUGUAUUACCCUAGUGGUCGACCGGUCUGAUGAGUCUCAGAUCAGACGAAACAGC [CAGAUC] | 1.98 ± 0.089 | 1.91 ± 0.032
18 | GCUGUCACCGGUGUAUUACCCUAGUGGUCGACCGGUCUGAUGAGUCUAAGAGCAGACGAAACAGC [AAGAGC] | 1.9 ± 0.046 | 1.532 ± 0.009
19 | GCUGUCACCGGUGUAUUACCCUAGUGGUCGACCGGUCUGAUGAGUCUCAGAAGAGACGAAACAGC [CAGAAG] | 1.9 ± 0.028 | 1.59 ± 0.021
20 | GCUGUCACCGGUGUAUUACCCUAGUGGUCGACCGGUCUGAUGAGUCUCAGAAUAGACGAAACAGC [CAGAAU] | 1.9 ± 0.034 | 1.64 ± 0.072
21 | GCUGUCACCGGUGUAUUACCCUAGUGGUCGACCGGUCUGAUGAGUCUGAGCCCAGACGAAACAGC [GAGCCC] | 1.99 ± 0.053 | 1.906 ± 0.013
